Biological target: human CD33 on the cell surface of human monocytes / myeloid cells (human) (UniProt P20138)
Assay: cell-based or functional assay

Chain of human CD33 on the cell surface of human monocytes / myeloid cells (human) (P20138 18-364 limits assumed): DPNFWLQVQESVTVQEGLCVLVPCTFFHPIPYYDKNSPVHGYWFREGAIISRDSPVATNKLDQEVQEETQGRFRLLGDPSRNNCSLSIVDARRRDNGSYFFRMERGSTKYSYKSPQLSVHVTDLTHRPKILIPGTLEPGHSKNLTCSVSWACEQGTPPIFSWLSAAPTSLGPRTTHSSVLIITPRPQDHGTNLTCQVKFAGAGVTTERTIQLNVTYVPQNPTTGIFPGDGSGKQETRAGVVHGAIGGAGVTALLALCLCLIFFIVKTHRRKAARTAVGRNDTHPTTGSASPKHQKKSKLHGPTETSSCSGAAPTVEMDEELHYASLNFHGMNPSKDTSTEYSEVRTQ

% Internalization: 50.5%
Substance: Gemtuzumab (hIgG4PAA) (antibody)

— US20240173425A1, “HUMAN CD33 ANTIBODIES AND GLUCOCORTICOID CONJUGATES” (Eli Lilly and Company, priority 2022, published 2024)
